This is an account of results in PMC6826206.

For the data set, the system named is hcGAScat-WT (human). The data set is described as follows: fluorescence anisotropy. The settings on record: reference; EMSA: 25 mM Tris-HCl pH 7.5, 1 mM DTT, 100 ug/ml BSA, 1 mM MgCl2, 45 mM KCl, 37 C 10 min, 7% PAGE in TAE at 4 C; FA: 5-10 nM FAM-dsDNA, Hill fit, buffer not ….

dsDNA24 registered a binding signal (relative to WT) of 1.
